From US20220195049A1 (Scripps Research, published 2022)

Molecular target: T1, PD-L1-Fc (PD-L1 antigen protein, extracellular region Met1-Thr239 fused to human Fc) (human, UniProt Q9NZQ7 19-239)
T1 construct: range 1-239; the secreted protein lacks it; also called PD-L1-Fc antigen; pCEP4-PDL1-Fc product; not shown: human Fc fragment of the pCEP4-Fc vector
Test: BLI (Octet); PD-1-coated biosensor dipped in a mix of PD-L1 antigen protein and antibody; KD from the Octet software

T1 sequence (Q9NZQ7 19-239): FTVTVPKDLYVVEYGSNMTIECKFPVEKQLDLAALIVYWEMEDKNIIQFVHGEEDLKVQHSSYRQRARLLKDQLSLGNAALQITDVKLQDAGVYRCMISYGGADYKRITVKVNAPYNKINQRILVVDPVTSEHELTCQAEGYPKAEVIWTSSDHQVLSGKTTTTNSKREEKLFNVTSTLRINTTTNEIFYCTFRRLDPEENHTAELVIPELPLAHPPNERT

B1: KL001-16 (antibody, V domains shown)
VH: QVQLVESGAEVKKPGSSVKVSCKASGGTFSSYAISWVRQAPGQGLEWMGRIIPILGIANYAQKFQGRVTVTADKSTSTAYMELSSLRSEDTAVYYCARSGYGYAYGSFDYWGQGTLVTVSS
VL: QLVLTQPPSVSGAPGQTVTISCTGPTIGAGYDVHWYQQLPGAAPKLLIYGNLNRPSGVPDRFSGSKSGTSASLAITDLQAEDEADYYCQSYDSRLGVVFGGGTKLTVL
Kd: 0.00908 nM

B2: KL001-24 (antibody, V domains shown)
VH: QVQLVESGAEVKKPGSSVKVSCKASGGTFSSYAISWVRQAPGQGLEWMGRIIPILGQANYAQKFQGRVTVTADKSTSTAYMELSSLRSEDTAVYYCARSGYGYAYGSFDYWGQGTLVTVSS
VL: QLVLTQPPSVSGAPGQTVTISCTGPTIGAGFDVHWYQQLPGAAPKLLIYGNLNRPSGVPDRFSGSKSGTSASLAITDLQAEDEADYYCQSYDSRLGVVFGGGTKLTVL
Kd: 0.0408 nM

B3: KL001-17 (antibody, V domains shown)
VH: QVQLVESGAEVKKPGSSVKVSCKASGGTFSSYAISWVRQAPGQGLEWMGRIIPILGIANYAQKFQGRVTVTADKSTSTAYMELSSLRSEDTAVYYCARSGYGYAYGSFDYWGQGTLVTVSS
VL: QLVLTQPPSVSGAPGQTVTISCTGPVIGAGYDVHWYQQLPGAAPKLLIYGNLNRPSGVPDRFSGSKSGTSASLAITDLQAEDEADYYCQSYDSRLGVVFGGGTKLTVL
Kd: 0.0183 nM

B4: KL001-26 (antibody, V domains shown)
VH: QVQLVESGAEVKKPGSSVKVSCKASGGTFSSYAISWVRQAPGQGLEWMGRIIPILGIANYAQKFQGRVTVTADKSTSTAYMELSSLRSEDTAVYYCARSGYGYAYGSFDYWGQGTLVTVSS
VL: QLVLTQPPSVSGAPGQTVTISCTGPTIGQGYDVHWYQQLPGAAPKLLIYGNLNRPSGVPDRFSGSKSGTSASLAITDLQAEDEADYYCQSYDSRLGVVFGGGTKLTVL
Kd: 0.0572 nM

B5: KL001-22 (antibody, V domains shown)
VH: QVQLVESGAEVKKPGSSVKVSCKASGGTFSSYAISWVRQAPGQGLEWMGRISPILGIANYAQKFQGRVTVTADKSTSTAYMELSSLRSEDTAVYYCARSGYGYAYGSFDYWGQGTLVTVSS
VL: QLVLTQPPSVSGAPGQTVTISCTGPTIGAGYDVHWYQQLPGAAPKLLIYGNLNRPSGVPDRFSGSKSGTSASLAITDLQAEDEADYYCQSYDSTLGVVFGGGTKLTVL
Kd: 0.049 nM

B6: KL001-07 (antibody, V domains shown)
VH: QVQLVESGAEVKKPGSSVKVSCKASGGTFSSYAISWVRQAPGQGLEWMGRQIPILGIANYAQKFQGRVTVTADKSTSTAYMELSSLRSEDTAVYYCARSGYGYAYGSFDYWGQGTLVTVSS
VL: QLVLTQPPSVSGAPGQTVTISCTGPTIGAGYDVHWYQQLPGAAPKLLIYGNLNRPSGVPDRFSGSKSGTSASLAITDLQAEDEADYYCQSYDSRLGVVFGGGTKLTVL
Kd: 0.0137 nM

B7: KL001-18 (antibody, V domains shown)
VH: QVQLVESGAEVKKPGSSVKVSCKASGGTFSSYAISWVRQAPGQGLEWMGRIIPILGIANYAQKFQGRVTVTADKSTSTAYMELSSLRSEDTAVYYCARSGYGYAYGSFDYWGQGTLVTVSS
VL: QLVLTQPPSVSGAPGQTVTISCTGQTIGAGYDVHWYQQLPGAAPKLLIYGNLNRPSGVPDRFSGSKSGTSASLAITDLQAEDEADYYCQSYDSTEGVVFGGGTKLTVL
Kd: 0.0161 nM

B8: KL001-02 (antibody, V domains shown)
VH: QVQLVESGAEVKKPGSSVKVSCKASGGTFSSYAISWVRQAPGQGLEWMGRIIPILGIANYAQKFQGRVTVTADKSTSTAYMELSSLRSEDTAVYYCARSGHGYAYGSFDYWGQGTLVTVSS
VL: QLVLTQPPSVSGAPGQTVTISCTGPTIGQGYDVHWYQQLPGAAPKLLIYGNLNRPSGVPDRFSGSKSGTSASLAITDLQAEDEADYYCQSYDSRLGVVFGGGTKLTVL
Kd: 0.0216 nM

B9: KL001-21 (antibody, V domains shown)
VH: QVQLVESGAEVKKPGSSVKVSCKASGGTFSSYAISWVRQAPGQGLEWMGRIIPVLGIANYAQKFQGRVTVTADKSTSTAYMELSSLRSEDTAVYYCARSGYGYAYGSFDYWGQGTLVTVSS
VL: QLVLTQPPSVSGAPGQTVTISCTGPTIGAGYDVHWYQQLPGAAPKLLIYGNLNRPSGVPDRFSGSKSGTSASLAITDLQAEDEADYYCQAYDSTLGVVFGGGTKLTVL
Kd: 0.0283 nM

B10: KL001-09 (antibody, V domains shown)
VH: QVQLVESGAEVKKPGSSVKVSCKASGGTFSSYAISWVRQAPGQGLEWMGRIIPILQIANYAQKFQGRVTVTADKSTSTAYMELSSLRSEDTAVYYCARSGYGYAYGSFDYWGQGTLVTVSS
VL: QLVLTQPPSVSGAPGQTVTISCTGPPIGAGYDVHWYQQLPGAAPKLLIYGNLNRPSGVPDRFSGSKSGTSASLAITDLQAEDEADYYCQSYDSTPGVVFGGGTKLTVL
Kd: 0.0216 nM

B11: KL001-12 (antibody, V domains shown)
VH: QVQLVESGAEVKKPGSSVKVSCKASGGTFSSYAISWVRQAPGQGLEWMGRIIPILGIANYAQKFQGRVTVTADKSTSTAYMELSSLRSEDTAVYYCARSGYGYAYGSFDYWGQGTLVTVSS
VL: QLVLTQPPSVSGAPGQTVTISCTGPTIGAGYDVHWYQQLPGAAPKLLIYGNLNRPSGVPDRFSGSKSGTSASLAITDLQAEDEADYYCQSYDSALGVVFGGGTKLTVL
Kd: 0.015 nM

B12: KL001-04 (antibody, V domains shown)
VH: QVQLVESGAEVKKPGSSVKVSCKASGGTFSSYAISWVRQAPGQGLEWMGRIIPILGIANYAQKFQGRVTVTADKSTSTAYMELSSLRSEDTAVYYCARSGYGYAYGSFAAWGQGTLVTVSS
VL: QLVLTQPPSVSGAPGQTVTISCTGPTIGAGYDVHWYQQLPGAAPKLLIYGNLNRPSGVPDRFSGSKSGTSASLAITDLQAEDEADYYCQSYDSTLGVVFGGGTKLTVL
Kd: 0.0136 nM

B13: KL001-23 (antibody, V domains shown)
VH: QVQLVESGAEVKKPGSSVKVSCKASGGTFSSYAISWVRQAPGQGLEWMGRIIPILGIANYAQKFQGRVTVTADKSTSTAYMELSSLRSEDTAVYYCARSGYGYAYGVFDHWGQGTLVTVSS
VL: QLVLTQPPSVSGAPGQTVTISCTGPTIGAGYDVHWYQQLPGAAPKLLIYGNLNRPSGVPDRFSGSKSGTSASLAITDLQAEDEADYYCQSYDSRLGVVFGGGTKLTVL
Kd: 0.0267 nM

B14: KL001-20 (antibody, V domains shown)
VH: QVQLVESGAEVKKPGSSVKVSCKASGGTFSSYAISWVRQAPGQGLEWMGRIIPIMGIANYAQKFQGRVTVTADKSTSTAYMELSSLRSEDTAVYYCARSGYGYAYGSFDYWGQGTLVTVSS
VL: QLVLTQPPSVSGAPGQTVTISCTGPTIGAGYDVHWYQQLPGAAPKLLIYGNLNRPSGVPDRFSGSKSGTSASLAITDLQAEDEADYYCQSYDSTLGVVFGGGTKLTVL
Kd: 0.0213 nM

B15: KL001-06 (antibody, V domains shown)
VH: QVQLVESGAEVKKPGSSVKVSCKASGGTFSSYAISWVRQAPGQGLEWMGRIIPILGIANYAQKFQGRVTVTADKSTSTAYMELSSLRSEDTAVYYCARSGYGYAYGSFDVWGQGTLVTVSS
VL: QLVLTQPPSVSGAPGQTVTISCTGPTIGAGYDVHWYQQLPGAAPKLLIYGNLNRPSGVPDRFSGSKSGTSASLAITDLQAEDEADYYCQSYDSRLGVVFGGGTKLTVL
Kd: 0.0169 nM

B16: KL001-10 (antibody, V domains shown)
VH: QVQLVESGAEVKKPGSSVKVSCKASGGTFSSYAISWVRQAPGQGLEWMGRIIPILGIANYAQKFQGRVTVTADKSTSTAYMELSSLRSEDTAVYYCARSGYGYAYGSFDYWGQGTLVTVSS
VL: QLVLTQPPSVSGAPGQTVTISCTGPTIGAGYDVHWYQQLPGAAPKLLIYGNLNRPSGVPDRFSGSKSGTSASLAITDLQAEDEADYYCQSYDQTLGVVFGGGTKLTVL
Kd: 0.0201 nM

B17: KL001-27 (antibody, V domains shown)
VH: QVQLVESGAEVKKPGSSVKVSCKASGGTFSSYAISWVRQAPGQGLEWMGRIIPILGIANYAQKFQGRVTVTADKSTSTAYMELSSLRSEDTAVYYCARSGYGYAYGSFDYWGQGTLVTVSS
VL: QLVLTQPPSVSGAPGQTVTISCTGQTIGAGYDVHWYQQLPGAAPKLLIYGNLNRPSGVPDRFSGSKSGTSASLAITDLQAEDEADYYCQSYDSTDGVVFGGGTKLTVL
Kd: 0.0612 nM

B18: KL001-14 (antibody, V domains shown)
VH: QVQLVESGAEVKKPGSSVKVSCKASGGTFSSYAISWVRQAPGQGLEWMGRIIPILGIANYAQKFQGRVTVTADKSTSTAYMELSSLRSEDTAVYYCARSGYGYAYQSFDYWGQGTLVTVSS
VL: QLVLTQPPSVSGAPGQTVTISCTGPQIGAGYDVHWYQQLPGAAPKLLIYGNLNRPSGVPDRFSGSKSGTSASLAITDLQAEDEADYYCQSYDSRLGVVFGGGTKLTVL
Kd: 0.0204 nM

B19: KL001-19 (antibody, V domains shown)
VH: QVQLVESGAEVKKPGSSVKVSCKASGGTFSSYAISWVRQAPGQGLEWMGRIIPILGIANYAQKFQGRVTVTADKSTSTAYMELSSLRSEDTAVYYCARSGYGYAYGSFDYWGQGTLVTVSS
VL: QLVLTQPPSVSGAPGQTVTISCTGPTIGAGYDVHWYQQLPGAAPKLLIYGNLNRPSGVPDRFSGSKSGTSASLAITDLQAEDEADYYCQSYDSTVGVVFGGGTKLTVL
Kd: 0.00655 nM

B20: KL001-15 (antibody, V domains shown)
VH: QVQLVESGAEVKKPGSSVKVSCKASGGTFSSYAISWVRQAPGQGLEWMGRIIPILGIANYAQKFQGRVTVTADKSTSTAYMELSSLRSEDTAVYYCARSGYGYAYGSFDYWGQGTLVTVSS
VL: QLVLTQPPSVSGAPGQTVTISCTGPTIQAGYDVHWYQQLPGAAPKLLIYGNLNRPSGVPDRFSGSKSGTSASLAITDLQAEDEADYYCQSYDSRLGVVFGGGTKLTVL
Kd: 0.0058 nM

B21: KL001-11 (antibody, V domains shown)
VH: QVQLVESGAEVKKPGSSVKVSCKASGGTFSSYAISWVRQAPGQGLEWMGRIIPILGIANYAQKFQGRVTVTADKSTSTAYMELSSLRSEDTAVYYCARSGYGYAYGSFDYWGQGTLVTVSS
VL: QLVLTQPPSVSGAPGQTVTISCTGPTIGAGYDVHWYQQLPGAAPKLLIYGNLNRPSGVPDRFSGSKSGTSASLAITDLQAEDEADYYCQSYDRTLGVVFGGGTKLTVL
Kd: 0.0163 nM
